The text below walks through data of patent publication US20240287172A1 (SCIRHOM, published 2024).

Test in all cases: FACS on MEF-DKO cells
For one test, the target named is T1, hiR2-FL-H505R-T7 (human, UniProt Q6PJF5 1-856).
T1 sequence: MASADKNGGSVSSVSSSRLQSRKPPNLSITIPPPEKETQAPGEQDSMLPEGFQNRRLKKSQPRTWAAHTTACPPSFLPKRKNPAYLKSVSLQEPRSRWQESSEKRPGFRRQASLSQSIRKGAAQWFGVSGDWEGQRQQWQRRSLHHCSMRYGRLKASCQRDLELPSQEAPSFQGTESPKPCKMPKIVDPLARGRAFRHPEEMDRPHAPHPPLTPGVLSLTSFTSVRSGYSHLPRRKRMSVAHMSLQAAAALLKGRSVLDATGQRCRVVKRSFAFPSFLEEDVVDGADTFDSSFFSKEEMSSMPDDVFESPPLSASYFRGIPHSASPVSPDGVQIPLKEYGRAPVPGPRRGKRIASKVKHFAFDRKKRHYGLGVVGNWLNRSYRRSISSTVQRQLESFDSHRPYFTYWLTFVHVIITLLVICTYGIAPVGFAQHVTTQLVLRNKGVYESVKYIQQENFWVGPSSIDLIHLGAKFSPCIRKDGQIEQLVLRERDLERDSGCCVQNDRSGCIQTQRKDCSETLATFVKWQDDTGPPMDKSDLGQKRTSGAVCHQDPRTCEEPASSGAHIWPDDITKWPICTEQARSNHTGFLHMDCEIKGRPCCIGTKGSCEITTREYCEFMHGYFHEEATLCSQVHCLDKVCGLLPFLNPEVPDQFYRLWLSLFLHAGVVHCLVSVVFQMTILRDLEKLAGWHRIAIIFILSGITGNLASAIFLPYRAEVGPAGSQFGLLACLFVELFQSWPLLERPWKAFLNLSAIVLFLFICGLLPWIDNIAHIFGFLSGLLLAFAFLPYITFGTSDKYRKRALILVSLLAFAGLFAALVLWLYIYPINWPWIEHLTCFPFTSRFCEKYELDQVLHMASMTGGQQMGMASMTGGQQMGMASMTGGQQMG

The target in another test is T2, hiR2-FL-G546A-T7 (human, UniProt Q6PJF5 1-856).
T2 sequence: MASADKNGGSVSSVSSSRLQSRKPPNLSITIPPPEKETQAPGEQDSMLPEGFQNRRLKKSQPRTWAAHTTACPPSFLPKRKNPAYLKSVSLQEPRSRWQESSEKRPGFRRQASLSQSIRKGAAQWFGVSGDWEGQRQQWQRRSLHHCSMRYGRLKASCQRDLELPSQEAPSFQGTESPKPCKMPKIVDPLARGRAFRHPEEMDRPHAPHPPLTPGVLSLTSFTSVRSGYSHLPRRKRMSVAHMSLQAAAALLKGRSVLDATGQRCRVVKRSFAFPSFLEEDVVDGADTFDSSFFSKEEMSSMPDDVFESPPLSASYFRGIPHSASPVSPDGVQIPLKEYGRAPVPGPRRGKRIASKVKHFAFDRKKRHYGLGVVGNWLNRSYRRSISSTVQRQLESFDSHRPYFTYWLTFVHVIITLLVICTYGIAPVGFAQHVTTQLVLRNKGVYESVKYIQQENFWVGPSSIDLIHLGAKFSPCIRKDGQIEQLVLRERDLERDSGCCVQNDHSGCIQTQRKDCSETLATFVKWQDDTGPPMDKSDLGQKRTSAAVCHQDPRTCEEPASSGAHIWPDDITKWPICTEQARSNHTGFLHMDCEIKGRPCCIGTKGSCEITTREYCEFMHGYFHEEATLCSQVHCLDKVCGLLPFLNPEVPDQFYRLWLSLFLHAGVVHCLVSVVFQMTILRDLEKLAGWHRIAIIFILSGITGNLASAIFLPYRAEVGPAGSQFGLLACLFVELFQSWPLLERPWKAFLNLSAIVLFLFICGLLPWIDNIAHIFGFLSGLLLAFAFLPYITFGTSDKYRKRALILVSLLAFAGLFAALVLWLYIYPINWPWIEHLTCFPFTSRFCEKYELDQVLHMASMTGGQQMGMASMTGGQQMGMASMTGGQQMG

In the next test the target is T3, hiR2-FL-I566E-T7 (human, UniProt Q6PJF5 1-856).
T3 construct: on MEF-DKO cells; also called hiR2-FL-1566E-T7
T3 sequence: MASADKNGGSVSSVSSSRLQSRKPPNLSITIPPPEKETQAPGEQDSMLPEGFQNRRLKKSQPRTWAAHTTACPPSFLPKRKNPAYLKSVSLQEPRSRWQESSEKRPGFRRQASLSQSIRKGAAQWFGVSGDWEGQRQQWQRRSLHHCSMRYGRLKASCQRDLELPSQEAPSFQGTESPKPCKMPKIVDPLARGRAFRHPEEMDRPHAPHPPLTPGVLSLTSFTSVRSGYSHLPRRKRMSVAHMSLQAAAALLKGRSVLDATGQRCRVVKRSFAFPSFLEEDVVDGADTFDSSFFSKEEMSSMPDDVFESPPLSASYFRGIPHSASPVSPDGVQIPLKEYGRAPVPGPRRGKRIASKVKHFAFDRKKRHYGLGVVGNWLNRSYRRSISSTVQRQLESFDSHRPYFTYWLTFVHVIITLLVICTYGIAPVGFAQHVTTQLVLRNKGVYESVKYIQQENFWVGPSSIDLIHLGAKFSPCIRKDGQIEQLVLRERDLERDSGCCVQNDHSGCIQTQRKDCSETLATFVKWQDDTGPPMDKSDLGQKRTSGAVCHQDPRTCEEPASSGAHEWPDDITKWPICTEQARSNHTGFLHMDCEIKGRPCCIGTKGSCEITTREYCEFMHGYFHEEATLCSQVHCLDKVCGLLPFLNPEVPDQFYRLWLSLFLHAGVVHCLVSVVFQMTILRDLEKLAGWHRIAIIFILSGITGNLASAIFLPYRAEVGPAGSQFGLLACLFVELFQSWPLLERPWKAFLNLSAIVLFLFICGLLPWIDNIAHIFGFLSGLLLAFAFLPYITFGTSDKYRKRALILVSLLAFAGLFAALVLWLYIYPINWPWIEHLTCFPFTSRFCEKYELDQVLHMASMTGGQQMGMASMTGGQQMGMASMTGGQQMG

B1: antibody 50 (antibody, V domains shown)
VH: QVQLQQSGAELVRPGASVKVSCKASGYAFSNYLIEWVKQRPGQGLEWIGVINPGSGFTKYNEKFKGKATLTADKSSSTAYMQLSSLTSEDSAVYFCARGLYRAMDYWGQGTSVTVSS
VL: DIQMTQSPASQSASLGESVTITCLASQTIGTWLAWYQQKPGKSPQLLIYAAASLADGVPSRFSGGGSGTKFSFKISSLQAEDFVNYYCQQIYSTPYTFGGGTKLEIK
notes: mouse IgG, kappa light chain; also called clone #50; purified antibody 50
As for B1, the binding result with hiR2-FL-H505R-T7 was “no binding (tested: 3 µg/ml)”.

B2: antibody 5 (antibody, V domains shown)
VH: QVTLKESGPGILQPSQTLSLTCSFSGFSLSTFGMGVGWIRQPSGKGLEWLAHIWWDDEKYYNSALKSRLTISKATSKNQAFLKIANVDTADTATYYCARISNYGSNYWYFNVWGTGTTVTVSS
VL: QVVLTQSPALMSASPGEKVTMTCSAGSSVSCMYWYQQKPGSSPRVLIYDTSNLASGVPARFTGSGSGTSYSLTISRMEAEDAASYYCQQWNSYPLTFGAGTKLELK
notes: mouse IgG, kappa light chain; also called clone #5; purified antibody 5
For the molecule B2, the binding result in the test with hiR2-FL-G546A-T7 and with hiR2-FL-I566E-T7 was “no binding (tested: 3 µg/ml)” in each case.
